Consider one substance from PMC3436581.

This experiment concerns the target Cu^2+-catalyzed oxidized PrP(23–231) (mild condition) (mouse) (UniProt P04925). Kind of experiment: SEC. (In gel filtration, larger molecules generally elute earlier.)

As usually defined, the stoichiometry N is a count of units in the complex or per binding partner. Turning to “Cu^2+-catalyzed oxidized PrP(23–231) (mild condition) (from UniProt P04925 23-231) (natural protein)”, the percent of total protein in the tetramer band is < 5% and the stoichiometry N came to 4.
